The record followed here is patent US20090163698A1, “Method for Preparing Antibody Conjugates” (priority 2007, published 2009).

This assay has as its target human αVβ3/5 integrin (human) (UniProt P06756). Briefly: cell-based or functional assay. Further details: IC50 of doxorubicin, cell viability, colon cancer HT29 cells, targeted liposomes 40:1 / IC50 of doxorubicin, cell viability, colon cancer HT29 cells, targeted liposomes 90:1 / IC50 of doxorubicin, cell viability, melanoma A375.S2 cells, targeted liposomes 40:1 / IC50 of doxorubicin, cell viability, melanoma A375.S2 cells, targeted liposomes 90:1 / IC50 of doxorubicin, cell viability, ovarian cancer A2780 cells, targeted liposomes 40:1 / IC50 of doxorubicin, cell viability, ovarian cancer A2780 cells, targeted liposomes 90:1: unit not given beside the values.

human αVβ3/5 integrin (human), sequence (P06756 31-1048): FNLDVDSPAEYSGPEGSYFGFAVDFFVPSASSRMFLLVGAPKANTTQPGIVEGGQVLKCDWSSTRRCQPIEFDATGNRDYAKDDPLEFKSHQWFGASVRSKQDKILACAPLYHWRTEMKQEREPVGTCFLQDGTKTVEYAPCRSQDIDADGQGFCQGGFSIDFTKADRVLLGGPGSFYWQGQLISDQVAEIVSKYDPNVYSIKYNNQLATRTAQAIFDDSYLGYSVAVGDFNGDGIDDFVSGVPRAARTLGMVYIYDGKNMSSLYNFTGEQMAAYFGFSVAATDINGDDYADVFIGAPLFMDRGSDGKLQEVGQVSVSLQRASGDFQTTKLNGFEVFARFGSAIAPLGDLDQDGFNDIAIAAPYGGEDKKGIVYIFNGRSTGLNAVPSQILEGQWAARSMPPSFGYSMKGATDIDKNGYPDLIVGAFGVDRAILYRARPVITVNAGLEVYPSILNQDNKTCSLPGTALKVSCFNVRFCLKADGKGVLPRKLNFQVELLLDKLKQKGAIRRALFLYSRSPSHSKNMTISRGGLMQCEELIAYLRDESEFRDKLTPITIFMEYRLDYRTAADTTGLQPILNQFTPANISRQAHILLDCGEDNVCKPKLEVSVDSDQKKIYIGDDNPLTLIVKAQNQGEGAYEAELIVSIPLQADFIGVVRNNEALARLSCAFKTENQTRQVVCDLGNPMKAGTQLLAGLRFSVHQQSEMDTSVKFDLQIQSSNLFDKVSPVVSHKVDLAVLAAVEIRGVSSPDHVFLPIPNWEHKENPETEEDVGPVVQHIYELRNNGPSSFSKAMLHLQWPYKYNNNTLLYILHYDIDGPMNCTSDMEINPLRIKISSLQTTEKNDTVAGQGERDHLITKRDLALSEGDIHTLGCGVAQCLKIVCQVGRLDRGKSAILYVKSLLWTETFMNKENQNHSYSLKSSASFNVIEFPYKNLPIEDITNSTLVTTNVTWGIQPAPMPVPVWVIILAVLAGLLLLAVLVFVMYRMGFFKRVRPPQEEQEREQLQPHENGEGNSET

Substance “CNTO 95 Fab′ (anti-alpha-V Fab′ made by pepsin cleavage of the parent antibody, reduction and reoxidation), conjugated to MalPEG-DSPE on the surface of liposomes” came in with an IC50 of doxorubicin, cell viability, colon cancer HT29 cells, targeted liposomes 40:1 of 180; an IC50 of doxorubicin, cell viability, colon cancer HT29 cells, targeted liposomes 90:1 of over 200; an IC50 of doxorubicin, cell viability, melanoma A375.S2 cells, targeted liposomes 40:1 of 15; an IC50 of doxorubicin, cell viability, melanoma A375.S2 cells, targeted liposomes 90:1 of 7. The IC50 of doxorubicin, cell viability, ovarian cancer A2780 cells, targeted liposomes 40:1 was 12; the IC50 of doxorubicin, cell viability, ovarian cancer A2780 cells, targeted liposomes 90:1 stood at 7; the Increase (ratio of IC50 of liposome-entrapped doxorubicin to IC50 of 90:1 targeted liposomes), A375.S2 cells turned out to be 29 fold; the Increase (ratio of IC50 of liposome-entrapped doxorubicin to IC50 of 90:1 targeted liposomes), A549 cells stood at 1 fold. For the same substance, the Increase (ratio of IC50 of liposome-entrapped doxorubicin to IC50 of 90:1 targeted liposomes), A2780 cells came to 29 fold; the Increase (ratio of IC50 of liposome-entrapped doxorubicin to IC50 of 90:1 targeted liposomes), HT29 cells turned out to be 1.1 fold; the Increase (ratio of IC50 of liposome-entrapped doxorubicin to IC50 of 90:1 targeted liposomes), MDA-MB-231 cells was 5 fold.
